According to patent US20200247894A1 (Regeneron, published 2020):
Each block holds one binder with its values, some of them ahead of it.

Tests used:
[1] = molecular target: T1, human IL2Rγ (endogenously expressed on cells) (human, UniProt P31785 23-369); experiment: cell-based or functional assay
T1 sequence (looked up): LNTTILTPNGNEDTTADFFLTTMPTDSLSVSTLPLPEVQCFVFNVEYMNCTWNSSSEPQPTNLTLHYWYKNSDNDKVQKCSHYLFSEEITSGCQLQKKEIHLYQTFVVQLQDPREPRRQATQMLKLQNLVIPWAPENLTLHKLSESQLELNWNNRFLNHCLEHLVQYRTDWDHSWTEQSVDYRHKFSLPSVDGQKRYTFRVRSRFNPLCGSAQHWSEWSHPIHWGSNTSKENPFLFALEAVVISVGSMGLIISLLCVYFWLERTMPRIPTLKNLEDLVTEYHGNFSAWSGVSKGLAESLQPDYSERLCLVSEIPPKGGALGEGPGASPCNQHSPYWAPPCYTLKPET

[2] = molecular target: T2, D1 domain of human IL-2Rγ extracellular domain expressed with a C-terminal myc-myc-hexahistidine tag (human); experiment: SPR, mAb captured on anti-hFc, 37 C
T2 construct: also called human IL2Rγ domain 1
T2 chain: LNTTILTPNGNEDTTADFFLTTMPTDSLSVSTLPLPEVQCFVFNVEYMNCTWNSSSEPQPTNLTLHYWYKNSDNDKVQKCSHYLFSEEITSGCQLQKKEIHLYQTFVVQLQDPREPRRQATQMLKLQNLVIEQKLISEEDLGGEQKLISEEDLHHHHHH
Experimental: (§1) Equilibrium dissociation constants (KD values) for IL-2Rγ binding to purified anti-IL2Rγ monoclonal antibodies were determined using a Biacore 4000 instrument equipped with a real-time surface plasmon resonance biosensor. All binding studies were performed in 10 mM HEPES, 150 mM NaCl, 3 mM EDTA, and 0.05% v/v Surfactant Tween-20, pH 7.4 (HBS-ET) running buffer at 25° C. and 37° C. The Biacore sensor surface was first derivatized by amine coupling with a monoclonal mouse anti-human Fc antibody (GE, # BR-1008-39) to capture anti-IL2Rγ monoclonal antibodies.
(§2) The dissociation of monoclonal antibody bound IL2Rγ reagents were monitored for 8-10 minutes in HBS-ET running buffer. Kinetic association (kₐ) and dissociation (kd) rate constants were determined by fitting the real-time sensorgrams to a 1:1 binding model using Scrubber 2.0c curve fitting software. Binding dissociation equilibrium constants (KD) and dissociative half-lives (t_{1/2}) were calculated from the kinetic rate constants as: […]

[3] = molecular target: T2, D1 domain of human IL-2Rγ extracellular …; experiment: SPR, mAb captured on anti-hFc, 25 C
Experimental: as §1, §2

[4] = molecular target: T3, D2 domain of human IL2Rγ extracellular domain expressed with a C-terminal myc-myc-hexahistidine tag (human); experiment: SPR, mAb captured on anti-hFc, 25 C
T3 construct: also called human IL2Rγ domain 2
T3 chain: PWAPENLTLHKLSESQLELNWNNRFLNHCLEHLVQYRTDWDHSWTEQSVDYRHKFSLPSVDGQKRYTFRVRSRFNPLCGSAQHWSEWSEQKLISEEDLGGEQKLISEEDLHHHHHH
Experimental: as §1

[5] = molecular target: T3, D2 domain of human IL2Rγ extracellular …; experiment: SPR, mAb captured on anti-hFc, 37 C
Experimental: as §1

[6] = molecular target: T3, D2 domain of human IL2Rγ extracellular …; experiment: SPR, mAb captured on anti-hFc, 25 C; 25 C
Experimental: as §1

- IC50; IL-4 250 pM; Ramos.2G6.4C10/STAT3-luc [1]: > 1e-07 M
- IC50; IL-7 50 pM; NK92/hIL7R/STAT3-luc [1]: > 1e-07 M
- IC50; IL-9 20 pM; NK92/hIL7R/STAT3-luc [1]: > 1e-07 M
- IC50; IL-15 60 pM; NK92/hIL7R/STAT3-luc [1]: > 1e-07 M
- Max Inhibition (%); IL-2 30 pM; NK92/hIL7R/STAT3-luc [1]: 27%
- Max Inhibition (%); IL-4 250 pM; Ramos.2G6.4C10/STAT3-luc [1]: 92%
- Max Inhibition (%); IL-7 50 pM; NK92/hIL7R/STAT3-luc [1]: 81%
- Max Inhibition (%); IL-9 20 pM; NK92/hIL7R/STAT3-luc [1]: 84%
- Max Inhibition (%); IL-15 60 pM; NK92/hIL7R/STAT3-luc [1]: 64%
- Max Inhibition (%); IL-21 5 pM; NK92/hIL7R/STAT3-luc [1]: 18%
- 100 nM Ag Bound [2]: 0 RU
- binding result [2]: no binding (tested: 100 nM)
- 100 nM Ag Bound [3]: 0 RU
- 100 nM Ag Bound [4]: 35 RU
- Kd [4]: 0.535 nM
- koff [4]: 0.000148 s⁻¹
- kon [4]: 276000 M⁻¹ s⁻¹
- t½ [4]: 78 min
- 100 nM Ag Bound [5]: 26 RU
- Kd [5]: 11.4 nM
- koff [5]: 0.000377 s⁻¹
- kon [5]: 33100 M⁻¹ s⁻¹
- t½ [5]: 31 min
B3: H4H12886P (antibody, human IgG4 S228P, kappa, V domains shown)
VH: EVQLVESGGGLVKPGGSLRLSCAASGFTFSTAWMSWVRQSPGRGLEWVGRMKSKTDGGTTFYAAPVKGRFTISRDDSKNTLYLQMNSLKTEDTAVYYCTTGLVPAFYKYYGVDVWGQGTTVTVSS
VL: DIQMTQSPSSLSASVGDRITITCQASQDITNYLNWYQQKPGKAPNLLIYDASNLVTGVPSRFSGSGSGTDFTFTILSLQPEDIATYYCQQYDSLLTFGPGTKVDIKR
notes: human IgG4

- IC50; IL-4 250 pM; Ramos.2G6.4C10/STAT3-luc [1]: > 1e-07 M
- IC50; IL-7 50 pM; NK92/hIL7R/STAT3-luc [1]: 4.1e-08 M
- IC50; IL-9 20 pM; NK92/hIL7R/STAT3-luc [1]: > 1e-07 M
- IC50; IL-15 60 pM; NK92/hIL7R/STAT3-luc [1]: > 1e-07 M
- Max Inhibition (%); IL-2 30 pM; NK92/hIL7R/STAT3-luc [1]: 26%
- Max Inhibition (%); IL-4 250 pM; Ramos.2G6.4C10/STAT3-luc [1]: 70%
- Max Inhibition (%); IL-7 50 pM; NK92/hIL7R/STAT3-luc [1]: 93%
- Max Inhibition (%); IL-9 20 pM; NK92/hIL7R/STAT3-luc [1]: 50%
- Max Inhibition (%); IL-15 60 pM; NK92/hIL7R/STAT3-luc [1]: 55%
- 100 nM Ag Bound [2]: 1 RU
- binding result [2]: no binding (tested: 100 nM)
- Kd [6]: 214 nM
- koff [6]: 0.0435 s⁻¹
- kon [6]: 203000 M⁻¹ s⁻¹
- t½ [6]: 0.3 min
- 100 nM Ag Bound [3]: 0 RU
B4: H4H12874P (antibody, human IgG4 S228P, kappa, V domains shown)
VH: QVQLVESGGGVVQPGRSLRLSCAASGFNFRNFGMHWVRQAPGKGLEWVAGILYDGSSKYYADSVKDRFTISRDNSKNTLFLQMNSLRAEDTAMYYCAKEEDTAMVPFDSWGPGTLVTVSS
VL: DIQLTQSPSFLSASVGDRVTITCWASQGISSYLAWYQQKPGKAPTLLIYAASTLQSGVPSRFSGSGSGTEFTLTISSLQPEDFASYYCQQLKSYPLTFGGGTKVEIKR
notes: human IgG4

Second part, the binder before the results:

B1: H4H12863P (antibody, human IgG4 S228P, kappa, V domains shown)
VH: QVQLVESGGGVVQPGRSLRLSCTASGFTFRSYDMYWVRQAPGKGLEWVSVITYDGNNKYYADSVKGRFTISRDNSKNTLFLQMSSLRPEDTAVYYCAKRGLIWVGESFDYWGQGTLVTVSS
VL: DIQMTQSPSTLSASVGDRVTITCRASQSINSWLAWYQQKPGKAPNLLIYKASSLESGVPSRFSGSGSGTEFTLTISSLQPDDFATYYCQQYKSYSWTFGQGTKVEIKR
notes: human IgG4
- IC50; IL-2 30 pM; NK92/hIL7R/STAT3-luc [1]: 4.3e-10 M
- IC50; IL-4 250 pM; Ramos.2G6.4C10/STAT3-luc [1]: 3.6e-10 M
- IC50; IL-7 50 pM; NK92/hIL7R/STAT3-luc [1]: 1.5e-09 M
- IC50; IL-9 20 pM; NK92/hIL7R/STAT3-luc [1]: 4.7e-10 M
- IC50; IL-21 5 pM; NK92/hIL7R/STAT3-luc [1]: > 1e-07 M
- Max Inhibition (%); IL-2 30 pM; NK92/hIL7R/STAT3-luc [1]: 48%
- Max Inhibition (%); IL-4 250 pM; Ramos.2G6.4C10/STAT3-luc [1]: 70%
- Max Inhibition (%); IL-7 50 pM; NK92/hIL7R/STAT3-luc [1]: 42%
- Max Inhibition (%); IL-9 20 pM; NK92/hIL7R/STAT3-luc [1]: 38%
- Max Inhibition (%); IL-15 60 pM; NK92/hIL7R/STAT3-luc [1]: 30%
- Max Inhibition (%); IL-21 5 pM; NK92/hIL7R/STAT3-luc [1]: 28%
- 100 nM Ag Bound [2]: 39 RU
- Kd [2]: 8.69 nM
- koff [2]: 0.00221 s⁻¹
- kon [2]: 254000 M⁻¹ s⁻¹
- t½ [2]: 5 min
- 100 nM Ag Bound [3]: 55 RU
- Kd [3]: 4.74 nM
- koff [3]: 0.000538 s⁻¹
- kon [3]: 114000 M⁻¹ s⁻¹
- t½ [3]: 21 min
- 100 nM Ag Bound [4]: 0 RU
- 100 nM Ag Bound [5]: -1 RU

B2: H4H12859P (antibody, human IgG4 S228P, kappa, V domains shown)
VH: QVQLVQSGAEVKKPGASVRVSCKASGYTFTDYDIHWVRQAPGHGLEWMGWINPNSGGTNYAQKFQGRVTMTRDTSISTVYMDLSRLRSDDTAVYYCARADYSSSYYYYGMDVWGQGTTVTVSS
VL: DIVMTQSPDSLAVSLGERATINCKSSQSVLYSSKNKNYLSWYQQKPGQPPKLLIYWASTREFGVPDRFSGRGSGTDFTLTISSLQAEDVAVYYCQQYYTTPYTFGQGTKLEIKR
notes: human IgG4
- Max Inhibition (%); IL-2 30 pM; NK92/hIL7R/STAT3-luc [1]: 29%
- 100 nM Ag Bound [2]: 0 RU
- binding result [2]: no binding (tested: 100 nM)
- 100 nM Ag Bound [3]: 0 RU
- 100 nM Ag Bound [4]: -1 RU
- 100 nM Ag Bound [5]: -1 RU
